According to patent publication US20200181597A1, “Composition and Application of Arginine-depleting Agents for Cancer, Obesity, Metabolic Disorders, and Related Complications and Comorbidities” (THE HONG KONG POLYTECHNIC UNIVERSITY, priority 2018, published 2020):

Tests used:
[1] = Arginase specific activity, DAMO colorimetric assay; type: biochemical; details: 37° C., pH 7.4, purified preparation
From the text: The arginase activity of the fusion proteins described herein can be substantially the same, lower, or higher than the activity of the arginase polypeptide from which it is derived. One unit of arginase activity is defined as the amount of fusion protein [e.g., BHA (SEQ ID NO; 75), BAH (SEQ ID NO: 76), N-ABD-rhArg (SEQ ID NO: 49), or N-ABD094-rhArg (SEQ ID NO: 50)] or arginase [e.g., BCA (SEQ ID NO: 70)] that catalyzes the production of 1 μmol of urea per min under standard assay conditions. The specific activity of the enzyme is expressed as activity units per mg of protein. Under standard diacetylmonoxime (DAMO) assay conditions (37° C., pH 7.4), the fusion proteins can have a specific activity that is about 5%, about 10%, about 15%, about 20%, about 25% about 30%, about 35% or about 40% lower or higher than the corresponding arginase polypeptide which it incorporates. In certain embodiments, fusion proteins can have a specific activity that is about 5% to about 40%, about 10% to about 40%, about 10% to about 35%, about 10% to about 30%, about 20% to about 30%, about 20% to about 35%, about 15% to about 30%, about 15% to about 25%, or about 10% to about 20% lower or higher than the corresponding arginase polypeptide which it incorporates.
One unit of enzyme activity is defined as the amount of enzyme (BCA, BHA or BAH) that catalyzes the production of 1 μmol urea per min under standard assay conditions. Specific activity of the enzyme is expressed as activity units per mg of protein.
Briefly, a serial dilution of 0.3 mL BCA solutions together with 0.15 mL water and 720 mM arginine substrate at pH 7.4 was pre-incubated separately at 37° C. for 10 min. The enzymatic reaction was carried out by adding 0.3 mL arginine substrate to the pre-incubated enzyme solutions. […]
The urea formed from the above reaction was quantified using the DAMO direct colorimetric method described by World Health Organization (WHO). […] The absorbance at 540 nm was measured. […]

[2] = Normal lean mice on chow diet, 500U at 10-day intervals for 4 weeks; type: in vivo, C57BL/6J male mice
From the text: Thus, we treated normal lean C57BL/6J male mice fed an ordinary chow diet via i.p. injection of 500U N-ABD094-rhArg (SEQ ID NO: 50) at 10-day intervals for 4 weeks. After 4 weeks of treatment, there was over 25% reduction of visceral (perigondal, perirenal and mesenteric fad pad) and subcutaneous (inguinal fat pad) fat mass (FIG. 15A) in comparison with the control mice injected with the vehicle (saline).
Obesity is highly associated with insulin resistance. We therefore conducted both in vivo and in vitro study to determine whether N-ABD094-rhArg (SEQ ID NO: 50) treatment will have effects on insulin sensitivity. […] At 24-hour after culture in N-ABD094-rhArg (SEQ ID NO: 50) or control (without addition of N-ABD094-rhArg) medium, primary hepatocytes were stimulated with 100 nM insulin for 20 min. Cells were then collected for Western blot analysis to detect phosphorylated protein kinase B (pAkt), which is commonly used as marker of insulin signaling.

[3] = Prevention of HFD-induced obesity, male mice; type: in vivo, C57BL/6J male mice
From the text: To determine the efficacy of N-ABD094-rhArg (SEQ ID NO: 50) in preventing mice from diet-induced obesity and associated metabolic disorders, C57BL/6J male mice were fed a high-fat diet containing 60 kcal % fat (HFD; Research Diets, D12492) from 8 week old for 12 weeks, and concurrently received i.p. injection of 200-300U N-ABD094-rhArg (SEQ ID NO: 50) or saline as vehicle control at 7-day intervals. C57BL/6J mice fed a matched low fat diet containing 10 kcal % fat (LFD; Research Diets, D12450J) and injected with saline served as the lean control of various measurements.
Two cohorts, with n=5 in each group, had been separately conducted. Mice were housed in group of 5. Similar results were obtained in the two independent cohorts. Data of one cohort of mice were summarized in Examples 18-22.

[4] = Blood pressure by tail cuff method in DIO mice; type: in vivo; details: 600U at 7-day intervals for 5 weeks
From the text: Obesity is associated with cardiovascular disease and hypertension. DIO mice treated with 600U N-ABD094-rhArg (SEQ ID NO: 50) at 7-day intervals for 5 weeks were subjected to measurement of blood pressure by tail cuff method using the CODA Non-invasive Blood Pressure System (Kents Scientific Corporation).

[5] = DIO mice treated with 600U for 20 weeks; type: in vivo, C57BL/6J male mice
From the text: Together, these findings support that N-ABD094-rhArg (SEQ ID NO: 50) is safe and effective for long term use.

[6] = 500U at 10-day intervals, 4 weeks

B1: N-ABD094-rhArg: albumin binding domain ABD094 fused N-terminally to recombinant human arginase I, SEQ ID NO: 50 (protein)
chain: MHHHHHHDEAVDANSLAEAKEAANAELDSYGVSDFYKRLIDKAKTVEGVEALKDAILAALPSGSNNNNNNGSGGMSAKSRTIGIIGAPFSKGQPRGGVEEGPTVLRKAGLLEKLKEQECDVKDYGDLPFADIPNDSPFQIVKNPRSVGKASEQLAGKVAEVKKNGRISLVLGGDHSLAIGSISGHARVHPDLGVIWVDAHTDINTPLTTTSGNLHGQPVSFLLKELKGKIPDVPGFSWVTPCISAKDIVYIGLRDVDPGEHYILKTLGIKYFSMTEVDRLGIGKVMEETLSYLLGRKKRPIHLSFDVDGLDPSFTPATGTPVVGGLTYREGLYITEEIYKTGLLSGLDIMEVNPSLGKTPEEVTRTVNTAVAITLACFGLAREGNHKPIDYLNPPK
modifications: Mn2+; N-ABD094-rhArg, Synthesized in the Lab
For B1, the Specific activity [1] was 184 U/mg, the “mRNA levels of Acc1, Fasn, Scd1 in visceral WAT and liver” value [2, 6] was “dramatically suppressed” and the “size of adipocytes in visceral WAT (histology)” value [2, 6] was “prominent reduction”. For the same molecule, the “reduction of visceral and subcutaneous fat mass vs vehicle” value ([2]; 500U i.p. at 10-day intervals, after 4 weeks) was “over 25%”, the “insulin sensitivity in insulin tolerance test (ITT)” value ([2]; after 2 weeks of treatment) was “significant increase” and the “HFD-induced downregulation of Acox1 in BAT” value ([3]; 12 weeks HFD) was “block the downregulation”. The “HFD-induced upregulation of adipogenic transcription factors and lipogenic enzymes in the liver” value ([3]; 12 weeks HFD) was “significantly suppress”, the “mRNA of Ucp1 and Pgc1α in BAT” value ([3]; 12 weeks HFD) was “significantly upregulated” and the “mRNA of proinflammatory adipokines (Mcp1, Il1b, Tnfa) in perigonadal WAT” value ([3]; 12 weeks HFD) was “suppress the upregulation”. For the same molecule, the “serum levels of Mcp1 (ELISA)” value ([3]; 12 weeks HFD) was “suppress an elevation”, the “weight of kidney, pancreas and heart” value ([3]; 12 weeks HFD) was “effectively prevent weight gain” and the “weight gain and expansion of WAT caused by HFD” value ([3]; 200-300U i.p. at 7-day intervals, 12 weeks, concurrent with HFD) was “effectively prevented”. The “adipocyte hypertrophy in WAT (histology)” value ([3]; 200-300U weekly, 12 weeks, HFD) was “prominently suppressed”, the “mRNA of Pparg, Srebp1c, Acc1, Scd1 in gWAT” value ([3]; 200-300U weekly, 12 weeks, HFD) was “dramatic downregulation” and the “mRNA of Pparg, Srebp1c, Acc1, Scd1 in skeletal muscle” value ([3]; 200-300U weekly, 12 weeks, HFD) was “significantly downregulated”. For the same molecule, the “development of hyperglycemia and hyperinsulinemia (fasting blood glucose, plasma insulin, HOMA-IR)” value ([3]; concurrent weekly treatment, HFD) was “completely prevent”, the “development of HFD-induced impaired glucose tolerance (GTT)” value ([3]; concurrent weekly treatment, GTT at 5 and 10 weeks) was “completely prevent” and the “development of HFD-induced insulin resistance (ITT)” value ([3]; concurrent weekly treatment, ITT at 6 and 11 weeks) was “completely prevent”. For the same molecule, the “development of hyperleptinemia, hypercholesterolemia, hypertriglyceridemia, hyper-free fatty acidemia” value ([3]; fasting plasma at 12 weeks of HFD) was “completely prevent”, the “systolic and diastolic blood pressure and heart rate vs vehicle-treated DIO mice” value [4] was “significantly lower” and the plasma arginine concentrations ([5]; 600U for 20 weeks, Biochrom 30 detection limit) was under 3 µM. For the same molecule, the bodyweight ([5]; 600U, by 5 weeks, maintained to 20 weeks without rebound) was “reduced to a level similar to the lean control mice”.
